Results on eight substances are retold here after publication PMC6936867.

One assay has as its target FcγRIIa R131 (UniProt P12318). The assay is described as follows: SPR. Background: Surface plasmon resonance follows binding to a sensor surface in real time, without labels.
The target of a further assay is FcγRIIIa F158 (UniProt P08637). Description: SPR.
Another assay concerns the target FcγRIIb (UniProt P31994). Description: SPR.
The target in a further assay is FcγRIIa H131 (UniProt P12318). Description: SPR.
The target in the next assay is FcγRIIIa V158. The assay is described as follows: SPR.
For assay [1], the target named is CAP256-VRC26.25 IgG3*17 (human). The assay is described as follows: SPR; antibodies printed at 200 nM in 25 mM sodium acetate pH 5.0 on an NHS/EDC-activated carboxymethyldextran gold prism (CFM, MX96 array reader); FcγRs injected in PBS + 0.05% Tween 20, 8-part 3-fold dilution series generally starting between 10 and 50 μM, 5 min association, 5 min dissociation; kinetic global analysis for KD.

pKd: −log10 of the molar value.

FcγRIIb, sequence (P31994 43-310): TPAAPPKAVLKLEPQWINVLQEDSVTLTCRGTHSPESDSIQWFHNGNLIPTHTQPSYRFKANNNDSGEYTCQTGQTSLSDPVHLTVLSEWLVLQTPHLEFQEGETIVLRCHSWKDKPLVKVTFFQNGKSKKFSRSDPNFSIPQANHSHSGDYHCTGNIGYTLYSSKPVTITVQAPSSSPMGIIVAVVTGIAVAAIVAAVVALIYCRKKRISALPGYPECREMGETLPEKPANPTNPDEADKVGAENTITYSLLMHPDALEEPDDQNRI
FcγRIIa H131, sequence (P12318 34-317): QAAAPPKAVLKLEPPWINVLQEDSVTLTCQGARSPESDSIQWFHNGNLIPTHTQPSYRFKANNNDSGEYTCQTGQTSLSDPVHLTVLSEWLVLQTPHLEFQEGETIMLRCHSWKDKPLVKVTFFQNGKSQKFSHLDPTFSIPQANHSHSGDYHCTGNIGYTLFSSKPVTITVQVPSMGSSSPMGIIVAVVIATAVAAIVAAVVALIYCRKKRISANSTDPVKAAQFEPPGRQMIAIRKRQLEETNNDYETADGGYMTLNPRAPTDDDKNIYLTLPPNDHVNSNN
FcγRIIIa V158, sequence (P08637 17-208 F176V): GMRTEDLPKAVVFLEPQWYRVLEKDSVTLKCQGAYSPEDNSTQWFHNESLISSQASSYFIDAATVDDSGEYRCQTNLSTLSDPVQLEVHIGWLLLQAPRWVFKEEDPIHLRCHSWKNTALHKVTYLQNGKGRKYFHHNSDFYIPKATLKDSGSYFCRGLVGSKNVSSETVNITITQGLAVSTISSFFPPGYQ
FcγRIIa R131, sequence (P12318 34-217 H167R): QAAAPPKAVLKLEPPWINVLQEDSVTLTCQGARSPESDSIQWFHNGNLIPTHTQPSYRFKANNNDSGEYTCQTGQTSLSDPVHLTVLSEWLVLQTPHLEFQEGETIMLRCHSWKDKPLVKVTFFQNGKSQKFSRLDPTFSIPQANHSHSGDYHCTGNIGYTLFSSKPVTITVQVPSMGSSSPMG
FcγRIIIa F158, sequence (P08637 17-254): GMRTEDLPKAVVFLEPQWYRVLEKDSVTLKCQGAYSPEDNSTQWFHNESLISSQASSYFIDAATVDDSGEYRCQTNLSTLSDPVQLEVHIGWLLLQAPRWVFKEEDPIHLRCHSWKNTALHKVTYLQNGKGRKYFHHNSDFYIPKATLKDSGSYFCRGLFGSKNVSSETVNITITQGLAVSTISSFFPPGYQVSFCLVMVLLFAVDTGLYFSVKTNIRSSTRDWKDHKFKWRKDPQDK

As for CAP256-VRC26.25 IgG1, the negative logarithm of the Kd (pKd) – broadly, the negative decadic logarithm of the Kd, by convention in mol/L – in the assay with FcγRIIa R131 is 5.24; with FcγRIIIa F158, 5.41; with FcγRIIb it was 5.18; with FcγRIIa H131 it was 5.25; in the assay with FcγRIIIa V158, 5.62.
For “CAP256-VRC26.29 IgG1 (from UniProt P01857)”, the pKd in the assay with FcγRIIa R131 is 5.28; with FcγRIIIa F158, 5.35; with FcγRIIb, 5.27; with FcγRIIa H131 it was 5.26; with FcγRIIIa V158 it was 5.44.
As for CAP256-VRC26.25 IgG3*17, the negative-log Kd (pKd) with FcγRIIa R131 is 5.70; with FcγRIIIa F158, 5.31; with FcγRIIb it was 5.35; with FcγRIIa H131, 6.00; in the assay with FcγRIIIa V158, 5.39.
In the case of “CAP256-VRC26.29 IgG3*17 (from UniProt P01860)”, the negative-log Kd (pKd) in the assay with FcγRIIa R131 was 5.54; with FcγRIIIa F158, 5.35; in the assay with FcγRIIb, 5.39; with FcγRIIa H131, 5.89; in the assay with FcγRIIIa V158, 5.62.
Regarding “CAP256-VRC26.29 IgG3*01 (from UniProt P01860)”, the pKd was 5.36 with FcγRIIIa F158, 5.89 with FcγRIIa H131 and 5.59 with FcγRIIIa V158.
With CAP256-VRC26.25 IgG3*01, the pKd in the assay with FcγRIIa R131 was 5.41; in the assay with FcγRIIIa F158, 5.51; in the assay with FcγRIIb, 5.34; with FcγRIIa H131 it was 6.00; with FcγRIIIa V158, 5.66.
Consider “CAP256-VRC26.29 IgG3*01m (from UniProt P01860)”, for which the pKd was 5.41 with FcγRIIIa F158, 5.85 in the assay with FcγRIIa H131 and 5.57 with FcγRIIIa V158.
For the substance FcγRIIIa, in assay [1], the fold less binding than other variants is 1.7 to 1.9 fold.
